Assay results from patent CN101671397A (UNIV SICHUAN, dated 2010).

Columns and labels:
[1] = target: T1, epidermal growth factor receptor (EGFR) on human lung cancer cell line A549 (human, UniProt P00533 25-1210); test: immunofluorescence and flow cytometry on A549 cells (summary)
T1 construct: whole, on cells; also called 表皮生长因子受体

[2] = target: T1, epidermal growth factor receptor (EGFR) …; test: flow cytometry on cells (A549), detected with rabbit antiserum and goat anti-rabbit IgG-FITC

B1: SCFV(Anti-EGFR)/Gelonin recombinant immunotoxin (抗EGFR单链抗体融合Gelonin重组免疫毒素) (other)
chain: EVQLQQSGAELMKPGASVKISCKATGYTFSSYWIEWVKQRPGHGLEWIGEILPGSKKTNYNEKFKGKATFTADTSSNTAYMQFSSLTSEDSAVYYCARYYYRNDDYGMDYWGQGTTVTVSSGGGGSGGGGSGGGGSDIVMSQSPKSMSMSVGERVTLTCKASENVVTYVSWYQQKPEQSPKLLIYGASNRYTGVPDRFTGSGSATDFTLTISSVQAEDLADYHCGQGCSYPYTFGGGTKLEIKGSGGGGSGGGGSGLDTVSFSTKGATYITYVNFLNELRVKLKPEGNSHGIPLLRKKCDDPGKCFVLVALSNDNGQLAEIAIDVTSVYVVGYQVRNRSYFFKDAPDAAYEGLFKNTIKTRLHFGGSYPSLEGEKAYRETTDLGIEPLRIGIKKLDENAIDNYKPTEIASSLLVVIQMVSEAARFTFIENQIRNNFQQRIRPANNTISLENKWGKLSFQIRTSGANGMFSEAVELERANGKKYYVTAVDQVKPKIALLKFVDKDPK
notes: also called ScFv(Anti-EGFR)/rGel
B1: binds [1].

B2: recombinant Gelonin (重组Gelonin) (enzyme)
chain: GLDTVSFSTKGATYITYVNFLNELRVKLKPEGNSHGIPLLRKKCDDPGKCFVLVALSNDNGQLAEIAIDVTSVYVVGYQVRNRSYFFKDAPDAAYEGLFKNTIKTRLHFGGSYPSLEGEKAYRETTDLGIEPLRIGIKKLDENAIDNYKPTEIASSLLVVIQMVSEAARFTFIENQIRNNFQQRIRPANNTISLENKWGKLSFQIRTSGANGMFSEAVELERANGKKYYVTAVDQVKPKIALLKFVDKDPK
notes: also called rGel
B2: no binding (tested: 100umol/L) [2].
